Results on one molecule are retold here after patent US20220177558A1 (INSERM INSTITUT NATIONAL DE LA SANT ET DE LA RECHERCHE M …, published 2022).

The target of the test is T1, Ac-Met11-Tau peptide: {N-alpha-acetyl}MEDHAGTYGLG (human).
T1 construct: Synthetic peptide coated on the ELISA plate; The C-terminal cysteine was added only for KLH conjugation of the immunogen; also called N-alpha-acetyl-Met11-Tau peptide; AcMet11-peptide
T1 peptide: Ac-MEDHAGTYGLG
The test is described as follows: indirect ELISA on coated peptide, positive control. A general note: In an ELISA, binding on a coated surface is turned into a signal by an enzyme label.

Where no end group is shown, it is not given here.

B1: 2H2D11 antibody (antibody, IgG2a, V domains shown)
VH: EVRLVESGGGLVQPGGSLRLSCATSGFTFTDYYLSWVRQPPGKAFEWLGFIRNRADGYTTNYSASVKGRFTISRDNSQSILYLQMNTLRVEDSATYYCARDNDHYAMDYWGQGTSVTVSS
VL: DVVMTQTPLSLSVTIGQPASISCKSSQSLLYSNGKTYLNWLQQRPGQAPKHLMYQVSKLDPGIPDRFSGSGSETDFILKISRVEAEDLGIYYCLQGTYYPYTFGGGTKLEIK
notes: also called Mab 2H2D11; monoclonal antibody directed against AcMet11-Tau
As to B1, the binding result is reported as “binds”.
